A short description of this series: label from the status in PepcDB records.

Turning to “MFPNSILGRPPFTPTHQQHNNFFALSPTLYSHQQLIDAQFNFQNVDLSRAVSLQPLTYGTVSPIQTSTSPLFRGRKRISDEKAFRLDGKRQRFHSPHQEPTIINQLVPLSGDRRYSMPPLFHTHYVPEIVRCVPPLREIPLLEPREITLPEAKDKLSQQILELFETCQQQASDLKKKELCRAQLQREIQLLFPQSRLFLVGSSLNGFGARSSDGDLCLVVKEEPCFFQVNQKTEARHILTLVHKHFCTRLSGYIERPQLIRAKVPIVKFRDKVSCVEFDLNVNNTVGIRNTFLLRTYAYLENRVRPLVLVIKKWASHHEINDASRGTLSSYSLVLMVLHYLQTLPEPILPSLQKIYPESFSTSVQLHLVHHAPCNVPPYLSKNESSLGDLLLGFLKYYATEFDWNTQMISVREAKAIPRPDDMEWRNKYICVEEPFDGTNTARAVHEKQKFDMIKDQFLKSWQRLKNKRDLNSVLPLRAATLKR”, the protein production result is on record as “failed”.

In the case of “MFQAIQQKLLLMPSGKKNLLSLGMKTAITRVFSALFAFLLTLIVSRTTDASTSGQFFFLFNLVSLTAIISQRGFDVALVRFNAIAFSNGDIQQQSDNYWTALTRSITFCFMAAVTLFVGFYLFPNQLNQTNSPIVAITLALMCVPFLVLGQTNSRVLQASKMVVPSLFALQLGVSVLMVLFIMGLSTLHLQNINSLMTALLLASLIVSIASTTKWFSSGQYQKPTPTTNIELISSAKQVWIGSIFTNILQWGSIVIAGFFISTTELGLLAAAQRTSLLIGFVLITINFVVAPMFASLFKEGKLDKLRNLSRWACRANIGAALLPVLVCTLFPEFVMQLFGDEFLAAAPLLVVLSLGQLVNIATGSVGFLLLMSGHERTMKYITICSGTISIALLVFLSQSYGVLGAAWAMAIGMAIQNLAALYFVKRYLGFFPVG”, the protein production result is recorded as “failed”.

On to “MFQALIDVVLPVFLVIGAGYCTTFAGYFKPEHIDGVMRFTQGFAIPCLLFRAIANLDLNAGFDPALLASFYMAAFLCFTAGLLGARLLFNRDWEDSVAIGFCCLFSNSVLLGLAITERAYGPENLVGNYAIIAIHSPFCYALGITTMEVIRNRGRGGRKMVTSVLNAMFRNVLILGIALGFIVNLSGISLPQIADDALSLIIRAALPGALFALGGVLVQYRPEGDTRVIVYICAISLLLHPGLVWLFGSALALPQDLFRSGVLNAAMAPGFNAYIFANIYGRAKRVAASSVLVATAASILTVWMWLMLLG”, for which the protein production result was “failed”.

As for “MFQISFMSKQLQDLIDRELMNASSLVKKGKYEKALEKLNKAERLAEKAKNSELFCRVLLHKGEILDSMEKSREALLQYEKALEISLRFFMSDPQDSSSQRCLYNSIDLMENILNKIDDVSVAEKSYERTNKYFGKVIGTYEKLIAKYPENHYYLINYIITVKNLRGYLLNVGKSEKQIQLINSTLETFKEILNIQPENPEIFEKLDEFVKDLGEEFLDDELFENAKKIYEHLQGIYRGLLENYPDNELVLHYLIVSYGYFGNLYSRQRYLDRIEETYRPALSIVEDNLRKNPENTAFLENLGKIHEKIGVTYSEAKDQEKANSYYEKALANFVNLKGKASEDPDYQAELGKIFANLGERFETINRIENAAKSYLHKIEIYDSLFEEDPEDEDVKMDNIDTLMHIGNLYAEAGYTEPAKKYYEKAIEGYERLLSENPESTDFEIGISDILTALGDMYAKVGEEETEPEDAELETAREYYEKALKLNEKEFERYPDDLTCQDELIRTLGKLGDSFAVQDRYEDVIPFYRRIVEIKEQVVRDDPRRWLAVNSLTNFLYQLGSYYGKIEEVELERKQYSKAAELYSRALHDKNLQHQIKEVLAVEVQSHGTALLKSGKYNAAKEALDLALEFFENLYEEDPEDEENYPFICEALFQNGNLQRALENFEEAAKSFDSLLPIVEKLLESNPESPEARENAGVTYTNVGEVYSLNGEYEKSKQAFERALTINAVLLEEEPDNSLYKINQAQTFEKYAKLLSKLGRSEEAEDYSTKSEEIYRKLAEEDSDEGDINE”, the protein production entry is listed as “failed”.

As for “MFRAMHLSLLGCLLGTSGCHGLPPAPPAPSAAVGNYGEVIDYLQRHIRREMERQDVPGLALALVDDQQLVWARGFGYADRQHRINASEHTAFHAGDLSKLLIASATLQLAERGQLSLDAPLQDTLREFYVRSRFHADQSEADRAITFRRLLSHQSGLPGEHLPPLFGERPNSLGQLPAKVSGVWLSNPPGTQVAHSNLGYELVGAAIERNTGKHFEQHMREHLLDPLQMTRSSFARNALPQAQRAHGYSGGGRPGSASDLPVNDLWSSPVDLSRFVRMLFANGRHKERQLLRKHSVEEMFRQQNAGNALDFDCQVGLAWFLSPCGSAPLEGGIRHYEYASATPGFSAHLILLPEQRLAAIVMSNADDSGSLTASLARQAASLMLQVKQGARRPAVQPTPARAPALEVPSPEDRRQLYGRYATRQGQIRLYERRGRLYADFGEQRVELLRDTSGWLQMRKRLLGFWPVGVDSAGQLQLDVVSYGQRRILVSRRHDQTAYLGERIEPTSLPQAWTEAVGTYRVASTGRHSYLNGLSIRIEDGFLLVRGQAGGTRSGEFILQPIDSAHAVLAGSGQGLGDTFSRDFDGLNALGYRFAQQDTKARPWLQRKESP”, the protein production entry is on record as “failed”.

As for “MFRKVLFPTDFSEGAYRAVEVFEKRNKMEVGEVILLHVIDEGTLEELMDGYSFFYDNAEIELKDIKEKLKEEASRKLQEKAEEVKRAFRAKNVRTIIRFGIPWDEIVKVAEEENVSLIILPSRGKLSLSHEFLGSTVMRVLRKTKKPVLIIKEVDENELAKTKGTSG”, the protein production result was “not failed”.

On to “MFRLEDFNFHNKTVFLRVDLNSPMKDGKIISDARFKAVLPTIRYLIESGAKVVIGTHQGKPYSEDYTTTEEHARVLSELLDQHVEYIEDIFGRYAREKIKELKSGEVAILENLRFSAEEVKNKPIEECEKTFLVKKLSKVIDYVVNDAFATAHRSQPSLVGFARIKPMIMGFLMEKEIEALMRAYYSKDSPKIYVLGGAKVEDSLKVVENVLRRERADLVLTGGLVANVFTLAKGFDLGRKNVEFMKKKGLLDYVKHAEEILDEFYPYIRTPVDFAVDYKGERVEIDLLSENRGLLHQYQIMDIGKRTAEKYREILMKARIIVANGPMGVFEREEFAIGTVEVFKAIADSPAFSVLGGGHSIASIQKYGITGITHISTGGGAMLSFFAGEELPVLRALQISYEKFKEVVK”, for which the protein production result is “not failed”.

“MFRSIKVASIVQIVFAVCAVLLALTVFEYKKALNTFTNDLNLTVSNTLTRLQVNLPKPLWDFDLETVKSAISAELKTPEISSIKITDTTGKAILYLTLDQATDDKGLRKTIAVENEGALAELASVSGELEFVEYGKKNPLGSIEIRYSDEFMHQQLAEYVSFNLLKVLILAILIPCMLFIILNFSVLKPLNELGDKTRTTIQWGCRPHPSVTRS”: the protein production result is reported as “failed”.

For the sequence “MFRTSGTKTIVFHCHPRYTMIVCVMEEFCRKKVDGNENNSYLTVCNRKLDQERKEIVMNEKQRLEQTGQIQTASHPADRKSDLERLKAKTTKDYEKYFTSVFLPPNLKEAKKRGKEEVQYVKDFTIPDEFRGMGRGRKFYIRTYGCQMNEHDTEVMAGIFMALGYEPTDRPEDANVILLNTCAIRENAENKVFGELGYLKPLKTTNPDLLLGVCGCMSQEEAVVNKILKQYQYVDLIFGTHNIHRLPYILHEAYMSKEMVVEVWSKEGDVVENLPKVRKGNIKAWVNIMYGCDKFCTYCIVPYTRGKERSRRPEDIIQEVRQLAAQGYKEITLLGQNVNAYGKDFNDIQYGLGDLMDELRKIDIARIRFTTSHPRDFDDRLIEVLAKRGNLVEHIHLPVQSGSTEILKMMGRKYTREEYLELVRKIKAAIPDVALTTDIIVGFPNETDEQFEETLSLYREVEFDSAYTFIYSPREGTPAAKMNDNVPMEVKKERLQRLNALVQEIAAKKMKQYEGQVVEVLVEGESKTNPDVLAGYTRKNKLVHFVGPKSLIGQLVNVRITQAKTWTLTGELANEAIEVN”, the protein production result was “failed”.

On to “MFSLKMRASSNGNHVSGAERLVKEEQIEEISSELIKRAMNHENGVPDFINLKVEKVTENINYIEHLKIKTINSNSKETSREFAINILKKELENYFLKNGKDTKKIDELIDSAFKIIDAGNMRGAAILDLDGNRLEKSSDRGIRVRNIDTAEELSKKILKDGSLTERTVDAIAIATKVVNCDIIAELCTSDNFSYTTGYVATKDGYFRILNLKDSGQVGGRVFFAESSDIDELYDKLENMPVIVY”, for which the protein production entry is “failed”.

For “MFSSSYSNLPPLPHRLFLLLTVIWAGSLWTIGYLVAPTLFSVLPSRETAGMIAGHLFRYEAILGMTVGVLQLVLCNVLIRRGAERYRSLRWIVLTMLVCVLAGYFGVQPFMEGLKVKAQALNLGVSESPYKAEFGMLHGVSSVIYLVQSVLALVLVWRASAPR”, the protein production result was “failed”.

“MFTFISIMAVGVLIGYPLRHKSQVRKITPLIHIVVCLLLFLLGLSIGLNRLIIDNLGYFCGQAAVISSLSILGSMMASLAVYHIFF”: the protein production entry is “failed”.

“MFTMVQKLWLTVVCAVFVTVSFLYFVSLYSYEKLYVDNLKDSLVMEGKRLSAQYDKREGISIFEEKVRAFDQISSSDVLFVSNPRDLSACLPFDVHHHSLISEGDRQALLDGKTVTKIGYEEHFDRNIMGVVIPVLENKKLVGIVYSYIPLKSIKDLIYDMGLILAPLALAITLLTIWIGRKIIIAITKPLSQMERVANHLATGDFSERITISSEDEIGRLGKAFNKMANSLETEDVKRKEFLANVSHELRTPLSYIKGYSEAILDGVAKGPQQEKVTQLIHKEADRMQRLVHDLLDLAQLEGEHFPLKKQPIVFSQLIEDVLDTYEIKFIEKKIRISTNLNPEIIVMIDEDRMQQVLHNVLDNAIRYTNQNGDIIVTLRQIDDYCELNIKDTGIGIDTEHLENLGERFYRVDKARSRQHGGTGLGLAIVRQIVHIHDGQWRIESEKGNGTTVSIKLKVQDEESMF”: the protein production entry was “failed”.

Regarding “MFTPGNVLSWATFFPVIGSALIVVLLAAKFFLRLDKKLVDDGSRWIALVTSALSFAAAIAAWRMYDPSATGVQLVQHFTWIRAFNIEFYFGVDGISISMVLLSGLISFIATIASMPWWSGKKDAEMAGMVDDGHEDPHHPKHFSVRMVPGYMAMLLLLQTGMMGTFVALDMFLFYVFWEIMLLPMYFLIGIWGGPRKEYAAIKFFLYTLAGSVLMLLAIIGIYYNSAPAQLADGSWSSGHTFNLIELAKQGAAGQFRNAAPILGFSFAKIVFIGLFIGFAIKIPMFPFHTWLPDAHVEAPTPISVILAGVLLKMGIYGILRFNYGILPDATAWAAGAIAVFGVINIIYAAFVCLAQKDLKKLIAYSSVSHMGFSLLGMAAMTPQGISGAVLNLFTHGIISPMLFLIVGVIYDRAHHREIEKFGGLAQELPEYSAIMGLAFFASLGLPGLAGFISEFTVFSGAFPVFTTYTIISATSVVLTAAYYLWAIHRMFLGKLNPVYKGYPDLNWRERMSLYPLAVICIYLGFYPQAILGVINPALHALIQNIKPL”, the protein production entry was “failed”.

On to “MFTYLLITIFGIGLLIWAFWYDKNMFKPEKKKNGKMTKPLHTRWYFWVLVVFSIVGGIGNMLGLGADDDDSDNNSAQTVQTSKKAKQSKAENHSKAKKSGTKKSKEISDEEKEAAALLLLRKNFKGKAKVWYDSDNKAFMIQPTGTEFKEELLDIIATQDTSDWKDLTDSMDSLSRSLYKNLQLADFVSIVNPDNPDKVLYSSLNGHSEYDFLKDDE”, for which the protein production result is listed as “failed”.

On to “MFVGVVVIVAYGNLGQRLAYTVRSDEVVATAGFVLVGFVAGVAGQVLGTRIQAAVGEGAAVVDLPLVLFLAASGAFVAALLRSVLFERDDPLVMLTVGLLLWLFFELDPSVTARRVVIALAVTVLLGYLSYALDTASLPGMLTGVLLSFLTIVLGGFGWFAMLITFFGLGGLSTKYRYDEKLDRGIAEENEGARGSGNVLANSIVALFAVVAAAASPSHIAVDPLLFFYAFAGAVAAAMTDTFSSEFGGLYDNPRLITTLRPVEPGTDGGVTWQGVAAGAAGAGIIAGIAALTQDISTVGSGVILLCGLVGMTVDSLLGATVEGSVVGNQGVNMLATLAAALTGAGVVLTAGLL”, for which the protein production result was “failed”.

The values above are taken from a protein production outcome set (Wang et al. 2014).
